Molecular target: T1, NY-ESO-1 (human, UniProt P78358 1-180, limits assumed)
T1 construct: Tumor antigen; coated on ELISA plates (ThermoFisher or RayBiotech) and amine-coupled to a CM5 chip for SPR (RayBiotech); also called NY-ESO-1/CTAG1B
Assay: SPR, NY-ESO-1 immobilised on CM5, antibody as analyte, bivalent analyte model
Experimental: Binding experiments were performed in HBS-EP buffer (10 mM HEPES pH 7.4, 150 mM NaCl, 3.4 mM EDTA, and 0.005% P20 surfactant). Serially diluted antibodies were injected at a flow rate of 30 μL/min for 60 s with a dissociation time of 5 min. The chip was regenerated after each run by sequential injection of 10 mM glycine, pH 3, and 500 mM arginine, pH 8 for 1 min each. For each run, a bovine serum albumin (BSA)-coupled surface was used to subtract non-specific receptor binding.

T1 sequence (P78358 whole entry): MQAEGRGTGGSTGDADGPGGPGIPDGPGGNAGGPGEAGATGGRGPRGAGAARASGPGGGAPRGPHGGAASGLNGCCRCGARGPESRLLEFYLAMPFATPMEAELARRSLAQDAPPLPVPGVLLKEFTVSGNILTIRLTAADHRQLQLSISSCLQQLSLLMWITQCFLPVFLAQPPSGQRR

B1: BC2-3G1 (antibody, V domains shown)
VH: QVQLQQSGPGLVKPSQTLSLTCAISGDSVSSNSAAWNWIRQSPSRGLEWLGRTYYRSKWYNDYAVSVKSRITINPDTSKNQFSLQLNSVTPEDTAVYYCARDLGIAAAGDFDYWGQGTLVTVSS
VL: EIVLTQSPATLSLSPGERATLSCRASQGVSSYLAWYQQKPGQAPRLLIYDASNRATGIPARFSGSGSGTDFTLTISSLEPEDFAVYYCHQGSNWPTFGGGTKVEI
notes: also called BC2-3G lineage member 1; BC2-3G sub-lineage 1
Q: Does B1 bind?
A: Result: binds

— patent publication US20200270704A1 (University of Texas, published 2020)
